Source: the RNAGym collection of RNA variant scans (doi:10.7554/elife.80360)

B1: HDV Ribozyme (parent)
chain: GGCCGGCAUGGUCCCAGCCUCCUCGCUGGCGCCGGCUGGGCAACAUUCCGAGGGGACCGUCCCCUCGGUAAUGGCGAAUGGGACCCA

Variants of: B1
Assay: self-cleavage, relative activity (ratio to wild type); higher = more cleavage; co-transcriptional
With GGACGGCAUGGUCCCAGCCUCCUCGCUGGCGCCGGCUGGGCAACAUUCCGAGGGGACCGUCCCCUCGGUAAUGGCGAAUGGGUCCCA the self-cleavage was 0.0821. For GGACGGCAUGGUCCCAGCCUCCUCGCUGGCGCCGGCUGGGCAACAUUCCGAGGGGACCGUCCCCUCGGUAAUGGCGAAUGGGAACCA, the self-cleavage was 0.391. Variant GGACGGCAUGGUCCCAGCCUCCUCGCUGGCGCCGGCUGGGCAACAUUCCGAGGGGACCGUCCCCUCGGUAAUGGCGAAUGGGAGCCA has a self-cleavage of 0.158. Work on GGACGGCAUGGUCCCAGCCUCCUCGCUGGCGCCGGCUGGGCAACAUUCCGAGGGGACCGUCGCCUCGGUAAUGGCGAAUGGGACCCA yielded a self-cleavage of 0.0773. Work on GGACGGCAUGGUCCCAGCCUCCUCGCUGGCGCCGGCUGGGCAACAUUCCGAGGGGACCGUCUCCUCGGUAAUGGCGAAUGGGACCCA yielded a self-cleavage of 0.57. Work on GGACGGUAUGGUCCCAGCCUCCUCGCUGGCGCCGGCUGGGCAACAUUCCGAGGGGACCGUCCCCUCGGUAAUGGCGAAUGGGACCCA yielded a self-cleavage of 0.188. In the case of GGACGGCAUGGUCCCAGCCUCCUCGCUGGCGCCGGCUGGGCAACAUUCCGAGGGGACCGUCCCCUCGGUAAUGGUGAAUGGGACCCA, the self-cleavage is reported as 0.128. Work on GGACGGCAUGGUCCCAGCCUCCUCGCUGGCGCCGGCUGGGCAAUAUUCCGAGGGGACCGUCCCCUCGGUAAUGGCGAAUGGGACCCA yielded a self-cleavage of 0.145. In the case of GGACGGCAUGGUCCCAGCCUCCUCGCUGGCGCCGGCUGGGCAACGUUCCGAGGGGACCGUCCCCUCGGUAAUGGCGAAUGGGACCCA, the self-cleavage is reported as 0.469. GGACGGCAUGGUCCCAGCCUCCUCGCUGGCGCCGGCUGGGCAACCUUCCGAGGGGACCGUCCCCUCGGUAAUGGCGAAUGGGACCCA showed a self-cleavage of 0.0482. Variant GGACGGCAUGGUCCCAGCCUCCUCGCUGGCGCCGGCUGGGCAACAUUCCGAGGGGAGCGUCCCCUCGGUAAUGGCGAAUGGGACCCA has a self-cleavage of 0.587. GGACGGCAUGGUCCCAGCCUCCUCGCUGGCGCCGGCUGGGCAACAUUCCGAGGGGAACGUCCCCUCGGUAAUGGCGAAUGGGACCCA showed a self-cleavage of 0.659. GGACGGCUUGGUCCCAGCCUCCUCGCUGGCGCCGGCUGGGCAACAUUCCGAGGGGACCGUCCCCUCGGUAAUGGCGAAUGGGACCCA showed a self-cleavage of 0.269. Work on GGACGGCGUGGUCCCAGCCUCCUCGCUGGCGCCGGCUGGGCAACAUUCCGAGGGGACCGUCCCCUCGGUAAUGGCGAAUGGGACCCA yielded a self-cleavage of 0.578. Variant GGACGGCAUGGUCCCAGCCUCCUCGCUGGCGCCGGCUGGGCAACAUUCCGAGGGGACCGUCCGCUCGGUAAUGGCGAAUGGGACCCA has a self-cleavage of 0.285. In the case of GGACGGCAUGGUCCCAGCCUCCUCGCUGGCGCCGGCUGGGCAACAUUCCGAGGGGACCGUCCUCUCGGUAAUGGCGAAUGGGACCCA, the self-cleavage is reported as 0.559. With GGACGGCAUGGUCCCAGCCUCCUCGCUGGCGCCGGCUGGGCAACAUUCCGGGGGGACCGUCCCCUCGGUAAUGGCGAAUGGGACCCA the self-cleavage was 0.444. With GGACGGCAUGGUCCCAGCCUCCUCGCUGGCGCCGGCUGGGGAACAUUCCGAGGGGACCGUCCCCUCGGUAAUGGCGAAUGGGACCCA the self-cleavage was 0.0761. Variant GGACGGCAUGGUCCCAGCCUCCUCGCUGGCGCCGGCUGGGCAACAUUCCGAGGGGACCGUCCCUUCGGUAAUGGCGAAUGGGACCCA has a self-cleavage of 0.65. For GGACGGCAUGGUCCCAGCCUCCUCGCUGGCGCCGGCUGGGCAACAUUCCGAGGGGACCGUCCCCUCGGUAAUGGCGUAUGGGACCCA, the self-cleavage was 0.224. Work on GGACGGCAUGGUCCCAGCCUCCUCGCUGGCGCCGGCUGGGCAACAUUCCGAGGGGACCGUCCCCUCGGUAAUGGCGCAUGGGACCCA yielded a self-cleavage of 0.171. GGACGGCAUGGUCCCAGCCUCCUCGCUGGCGCCGGCUGGGCAACAUUCCGAGGGGACCGUCCCCUCGGUAAUGGCGGAUGGGACCCA gave a self-cleavage of 0.313. GUCCGGCAUGGUCCCAGCCUCCUCGCUGGCGCCGGCUGGGCAACAUUCCGAGGGGACCGUCCCCUCGGUAAAGGCGAAUGGGACCCA showed a self-cleavage of 0.0287. With GGACGGCAUGGUCCCAGCCUCCUCGCUGGCGCCGGCUGGGCAACAUUCCGAGGGGACCGUCCCCUCGGUUAUGGCGAAUGGGACCCA the self-cleavage was 0.437. Work on GGACGGCAUGGUCCCAGCCUCCUCGCUGGCGCCGGCUGGGCAACAUUCCGAGGGGACGGUCCCCUCGGUAAUGGCGAAUGGGACCCA yielded a self-cleavage of 0.606. GGACGGCAUGGUCCCAGCCUCCUCGCUGGCGCCGGUUGGGCAACAUUCCGAGGGGACCGUCCCCUCGGUAAUGGCGAAUGGGACCCA gave a self-cleavage of 0.0915. For GGACGGCAUGGUCACAGCCUCCUCGCUGGCGCCGGCUGGGCAACAUUCCGAGGGGACCGUCCCCUCGGUAAUGGCGAAUGGGACCCA, the self-cleavage was 0.313. GGACGGCAUGGUCUCAGCCUCCUCGCUGGCGCCGGCUGGGCAACAUUCCGAGGGGACCGUCCCCUCGGUAAUGGCGAAUGGGACCCA gave a self-cleavage of 0.697. GGAGGGCAUGGUCCCAGCCUCCUCGCUGGCGCCGGCUGGGCAACAUUCCGAGGGGACCGUCCCCUCGGUAAUGGCGAAUGGGACCCA gave a self-cleavage of 0.0225. GGACGGCAUGGUCCCAGCCUCCUCGCUGGCGCCGGCUGGGCAACAUUACGAGGGGACCGUCCCCUCGGUAAUGGCGAAUGGGACCCA showed a self-cleavage of 0.839. GGACGGCAUGGUCCCAGCCUCCUCGCUGGCGCCGGCUGGGCAACAUUUCGAGGGGACCGUCCCCUCGGUAAUGGCGAAUGGGACCCA gave a self-cleavage of 0.635. In the case of GUCCGGCAUGGUCCCAGCCUCCUCGCUGGCGCCGGCUGGGCAACAUUCCGAGGGGACCGUCCCCACGGUAAUGGCGAAUGGGACCCA, the self-cleavage is reported as 0.02.
